Laboratory results taken from the supplement of paper PMC10567573.

B1: COX4I1 (parent)
chain: VAHVKHLSASQKALKEKEKASWSS

Variants of: B1
Experiment: protein stability index of a GFP-peptide fusion (GPS, HEK-293T) (PSI 1-6); higher = more stable
Settings: c terminus: a fixed tail appended
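Note: lentivirally expressed fusions sorted by FACS into six bins by GFP to DsRed ratio, PSI derived from sequencing read proportions per bin multiplied by bin number.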

Variant | protein stability index
VAHVKHLSASQKALKEKGKASWSS [E18G] | 3.13
VAHVKHLSASQKALKEKMKASWSS [E18M] | 2.13
VAHVKHLSASQKALKEKRKASWSS [E18R] | 2.77
VAHVKHLSASQKALKEKDKASWSS [E18D] | 3.15
VAHVKHLSASQKALKEKCKASWSS [E18C] | 3.38
VAHVKHLSASQKALKEKPKASWSS [E18P] | 2.52
VAHVKHLSASQKALKEKHKASWSS [E18H] | 3.64
VAHVKHLSASQKALKEKLKASWSS [E18L] | 2.69
VAHVKHLSASQKALKEKEWASWSS [K19W] | 3.46
VAHVKHLSASQKALKEKELASWSS [K19L] | 2.48
VAHVKHLSASQKALKEKEPASWSS [K19P] | 3.63
VAHVKHLSASQKALKEKECASWSS [K19C] | 2.79
VAHVKHLSASQKALKEKEAASWSS [K19A] | 3.86
VAHVKHLSASQKALKEKEMASWSS [K19M] | 2.7
VAHVKHLSASQKALKEKEDASWSS [K19D] | 3.85
VAHVKHLSASQKALKEKEQASWSS [K19Q] | 3.02
VAHVKHLSASQKALKEKEEASWSS [K19E] | 4.5
VAHVKHLSASQKALKEKEGASWSS [K19G] | 3.52
VAHVKHLSASQKALKEKESASWSS [K19S] | 3.52
VAHVKHLSASQKALKEKEHASWSS [K19H] | 2.89
VAHVKHLSASQKALKEKEIASWSS [K19I] | 3.21
VAHVKHLSASQKALKEKEFASWSS [K19F] | 2.64
VAHVKHLSASQKALKEKEVASWSS [K19V] | 3.03
VAHVKHLSASQKALKEKEYASWSS [K19Y] | 2.28

Variant | protein stability index
VAHVKHLSASQKALKEKETASWSS [K19T] | 3.17
VAHVKHLSASQKALKEKENASWSS [K19N] | 3.4
VAHVKHLSASQKALKEKERASWSS [K19R] | 3.71
VAHVKHLSASQKALKEKEKRSWSS [A20R] | 3.65
VAHVKHLSASQKALKEKEKPSWSS [A20P] | 3.36
VAHVKHLSASQKALKEKEKLSWSS [A20L] | 2.86
VAHVKHLSASQKALKEKEKISWSS [A20I] | 2.76
VAHVKHLSASQKALKEKEKQSWSS [A20Q] | 2.57
VAHVKHLSASQKALKEKEKFSWSS [A20F] | 3.13
VAHVKHLSASQKALKEKEKMSWSS [A20M] | 2.39
VAHVKHLSASQKALKEKEKDSWSS [A20D] | 3.27
VAHVKHLSASQKALKEKEKGSWSS [A20G] | 3.25
VAHVKHLSASQKALKEKEKYSWSS [A20Y] | 2.29
VAHVKHLSASQKALKEKEKCSWSS [A20C] | 3.28
VAHVKHLSASQKALKEKEKHSWSS [A20H] | 3.23
VAHVKHLSASQKALKEKEKSSWSS [A20S] | 3.16
VAHVKHLSASQKALKEKEKNSWSS [A20N] | 3.05
VAHVKHLSASQKALKEKEKWSWSS [A20W] | 2
VAHVKHLSASQKALKEKEKKSWSS [A20K] | 3.48
VAHVKHLSASQKALKEKEKVSWSS [A20V] | 3.21
VAHVKHLSASQKALKEKEKESWSS [A20E] | 1.71
VAHVKHLSASQKALKEKEKTSWSS [A20T] | 3.25
VAHVKHLSASQKALKHKEKASWSS [E16H] | 3.56
VAHVKHLSASQKALKRKEKASWSS [E16R] | 2.8

Variant | protein stability index
VAHVKHLSASQKALKMKEKASWSS [E16M] | 2.46
VAHVKHLSASQKALKWKEKASWSS [E16W] | 2.31
VAHVKHLSASQKALKPKEKASWSS [E16P] | 2.75
VAHVKHLSASQKALKCKEKASWSS [E16C] | 2
VAHVKHLSASQKALKVKEKASWSS [E16V] | 2.03
VAHVKHLSASQKALKIKEKASWSS [E16I] | 2.54
VAHVKHLSASQKALKTKEKASWSS [E16T] | 2.93
VAHVKHLSASQKALKNKEKASWSS [E16N] | 3.05
VAHVKHLSASQKALKAKEKASWSS [E16A] | 3.67
VAHVKHLSASQKALKDKEKASWSS [E16D] | 3.48
VAHVKHLSASQKALKQKEKASWSS [E16Q] | 2.72
VAHVKHLSASQKALKKKEKASWSS [E16K] | 3.17
VAHVKHLSASQKALKSKEKASWSS [E16S] | 2.64
VAHVKHLSASQKALKGKEKASWSS [E16G] | 2.38
VAHVKHLSASQKALKLKEKASWSS [E16L] | 2.36
VAHVKHLSASQKALKFKEKASWSS [E16F] | 2.21
VAHVKHLSASQKALKYKEKASWSS [E16Y] | 2.56
VAHVKHLSASQKQLKEKEKASWSS [A13Q] | 2.63
VAHVKHLSASQKNLKEKEKASWSS [A13N] | 3.58
VAHVKHLSASQKMLKEKEKASWSS [A13M] | 2.95
VAHVKHLSASQKPLKEKEKASWSS [A13P] | 3.8
VAHVKHLSASQKYLKEKEKASWSS [A13Y] | 3.06
VAHVKHLSASQKTLKEKEKASWSS [A13T] | 3.27
VAHVKHLSASQKWLKEKEKASWSS [A13W] | 2.08

Variant | protein stability index
VAHVKHLSASQKVLKEKEKASWSS [A13V] | 3.09
VAHVKHLSASQKRLKEKEKASWSS [A13R] | 2.69
VAHVKHLSASQKSLKEKEKASWSS [A13S] | 3.2
VAHVKHLSASQKALKEKEKASASS [W22A] | 5.14
VAHVKHLSASQKALKEKEKASQSS [W22Q] | 4.79
VAHVKHLSASQKALKEKEKASTSS [W22T] | 4.96
VAHVKHLSASQKALKEKEKASISS [W22I] | 4.38
VAHVKHLSASQKALKEKEKASESS [W22E] | 5.33
VAHVKHLSASQKALKEKEKASLSS [W22L] | 4.74
VAHVKHLSASQKALKEKEKASCSS [W22C] | 4.97
VAHVKHLSASQKALKEKEKASKSS [W22K] | 4.78
VAHVKHLSASQKALKEKEKASNSS [W22N] | 5.21
VAHVKHLSASQKALKEKEKASYSS [W22Y] | 4.29
VAHVKHLSASQKALKEKEKASRSS [W22R] | 4.58
VAHVKHLSASQKALKEKEKASGSS [W22G] | 5.03
VAHVKHLSASQKALKEKEKASFSS [W22F] | 4.6
VAHVKHLSASQKALKEKEKASDSS [W22D] | 4.85
VAHVKHLSASQKALKEKEKASSSS [W22S] | 5.08
VAHVKHLSASQKALKEKEKASHSS [W22H] | 4.48
VAHVKHLSASQKALKEKEKASPSS [W22P] | 5.12
VAHVKHLSASQKALKEKEKASVSS [W22V] | 4.98
VAHVKHLSASQKALKEKEKASMSS [W22M] | 4.88
